The source of these data is article PMC12766925, “Functional assembly of the Qc-SNARE with Sec18 and Sec17 on membranes” (Molecular Biology of the Cell, 2025).

The target of one experiment is T1, His6-Sec18 (yeast (Saccharomyces Genome Database …, UniProt P18759 1-758)).
T1 construct: Sec18, yeast, YBR080C; construct from Haas and Wickner, 1996; also called Sec18/NSF; source: E. coli XL1 Blue/pQE9-His6-Sec18, purified (Ni-NTA, Superdex 200)
T1 sequence (looked up): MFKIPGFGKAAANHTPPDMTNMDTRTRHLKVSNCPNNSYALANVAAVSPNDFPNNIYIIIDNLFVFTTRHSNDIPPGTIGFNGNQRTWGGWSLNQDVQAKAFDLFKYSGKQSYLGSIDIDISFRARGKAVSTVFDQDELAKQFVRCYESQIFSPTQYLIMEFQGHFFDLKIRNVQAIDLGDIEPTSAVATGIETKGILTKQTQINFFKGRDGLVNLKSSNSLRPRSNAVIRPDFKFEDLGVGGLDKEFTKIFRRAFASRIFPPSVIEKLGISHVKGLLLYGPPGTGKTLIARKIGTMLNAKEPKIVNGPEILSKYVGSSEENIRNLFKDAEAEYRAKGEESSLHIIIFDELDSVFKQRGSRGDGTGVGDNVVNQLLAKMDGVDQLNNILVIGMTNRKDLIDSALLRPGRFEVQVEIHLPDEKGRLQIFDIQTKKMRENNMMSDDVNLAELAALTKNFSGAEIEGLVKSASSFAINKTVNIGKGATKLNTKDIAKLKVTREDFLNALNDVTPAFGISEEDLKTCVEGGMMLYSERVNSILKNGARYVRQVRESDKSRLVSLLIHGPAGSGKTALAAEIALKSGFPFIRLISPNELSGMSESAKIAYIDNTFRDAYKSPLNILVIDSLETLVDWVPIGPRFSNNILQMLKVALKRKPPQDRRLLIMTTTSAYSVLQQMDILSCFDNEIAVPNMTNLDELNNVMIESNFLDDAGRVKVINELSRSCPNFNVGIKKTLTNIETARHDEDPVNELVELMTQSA
Nature of the experiment: liposome floatation (density gradient) with immunoblot; protein-free VML liposomes, 1 mM Mg:ATPyS, where indicated 1 µM Sec17, 250 nM Sec18, 2 µM Qc; Rb150, 27°C 1 h; floated through Histodenz; bound proteins by Western blot. As to conditions: both partners purified.

The target of experiment [1] is T2, complex of RQaQb on proteoliposomes (yeast (Saccharomyces Genome Database …, UniProt Q12255 1-253; Q12241 1-283; Q04338 1-217).
T2 construct: Nyv1 (R SNARE), yeast, YLR093C; as m5; Vam3 (Qa SNARE), yeast, YOR106W; as m6; Vti1 (Qb SNARE), yeast, YMR197C; as m7; also called R, Qa, and Qb; source: purified SNAREs (Mima et al., 2008) reconstituted together into VML proteoliposomes; copies: + +
The experiment is described as follows: liposome floatation (density gradient) with immunoblot; VML proteoliposomes with no SNAREs, single or several anchored SNAREs (1:2000 to lipid), 0.5 mM lipid, 1 µM added Sec17, Rb150, 0.04% defatted BSA, 1 mM MgCl2, 27°C 1 h; floated through Histodenz; bound Sec17 by Western blot. The note with it: both partners purified. In general terms: A western blot detects proteins with antibodies after separation by electrophoresis.

T2 sequence (Q12255 whole entry, chain 1 of 3): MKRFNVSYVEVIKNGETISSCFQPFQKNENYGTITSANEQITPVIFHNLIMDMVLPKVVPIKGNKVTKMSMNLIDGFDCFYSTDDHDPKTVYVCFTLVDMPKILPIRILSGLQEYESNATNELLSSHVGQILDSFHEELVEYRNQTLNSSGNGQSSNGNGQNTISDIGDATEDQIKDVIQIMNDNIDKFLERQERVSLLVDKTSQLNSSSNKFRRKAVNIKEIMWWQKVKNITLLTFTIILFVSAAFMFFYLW
T2 sequence (Q12241 whole entry, chain 2 of 3): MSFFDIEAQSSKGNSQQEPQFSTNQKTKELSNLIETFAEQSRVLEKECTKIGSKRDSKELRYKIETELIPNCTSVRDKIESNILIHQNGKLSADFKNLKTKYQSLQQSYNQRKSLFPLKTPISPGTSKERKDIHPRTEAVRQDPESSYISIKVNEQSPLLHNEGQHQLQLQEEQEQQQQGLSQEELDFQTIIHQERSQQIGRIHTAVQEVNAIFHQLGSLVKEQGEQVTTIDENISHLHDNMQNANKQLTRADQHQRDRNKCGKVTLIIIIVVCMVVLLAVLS
T2 sequence (Q04338 whole entry, chain 3 of 3): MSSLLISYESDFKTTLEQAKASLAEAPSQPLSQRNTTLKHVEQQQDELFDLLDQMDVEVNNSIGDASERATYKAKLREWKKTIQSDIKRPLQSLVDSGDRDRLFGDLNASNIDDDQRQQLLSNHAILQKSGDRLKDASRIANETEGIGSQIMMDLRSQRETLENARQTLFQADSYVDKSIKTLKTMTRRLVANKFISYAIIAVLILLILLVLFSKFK

B1: Sec17 (natural protein, UniProt P32602 1-292, looked up)
chain: MSDPVELLKRAEKKGVPSSGFMKLFSGSDSYKFEEAADLCVQAATIYRLRKELNLAGDSFLKAADYQKKAGNEDEAGNTYVEAYKCFKSGGNSVNAVDSLENAIQIFTHRGQFRRGANFKFELGEILENDLHDYAKAIDCYELAGEWYAQDQSVALSNKCFIKCADLKALDGQYIEASDIYSKLIKSSMGNRLSQWSLKDYFLKKGLCQLAATDAVAAARTLQEGQSEDPNFADSRESNFLKSLIDAVNEGDSEQLSEHCKEFDNFMRLDKWKITILNKIKESIQQQEDDLL
notes: Sec17, yeast, YBL050W; Plasmid from Schwartz and Merz, 2009; also called Sec17/SNAP; wild-type Sec17; source: E. coli Rosetta2(DE3), purified (chitin resin, DTT cleavage, dialysed into Rb150)
As to B1, the binding result (in the experiment with His6-Sec18; in experiment [1]) was “binds” each time.
